In patent EP0569583B1, “[…] OF POLYETHER-S[…] AGENTS IN DIAGNOSIS AND THERAPY” (Deutsches Krebsforschungszentrum Stiftung des öffentlichen …, priority 1991, dated 1993):

What was measured:
[1] = tested on: experimentelle Tumoren und Xenotransplantate; assay: Concentration of the radiolabelled agents in experimental tumours and human xenografts; format: in vivo, Ratte; Nacktmaus; details: 300 µC = 11,1 MBq administered; all tumour models tested (Beispiel 2 compound only in Walker Carcinosarcom, Osteosarcom, Ovarialcarcinom O-342)
Text: Die Konzentrierung dieser Mittel wurde an folgenden experimentellen Tumoren und an folgenden Tiermodellen geprüft:
Alle diese experimentellen Tumoren und Xenotransplantate wurden mit den Verbindungen a und c gemäß Beispiel 1 (also 1a und 1c) und drei davon, nämlich das Walker Carcinosarcom, das Osteosarcom und das Ovarialcarcinom (O-342) auch mit dem Diphosphat gemäß Beispiel 2 untersucht.
(§1) Bei allen diesen Anwendungsversuchen wurden immer 300 µC = 11,1 MBq verabreicht Es zeigten sich mit den eingesetzten Mitteln, nämlich 1a und 1c und die Verbindung aus Beispiel 2 eine Konzentration von mindestens 30% des Mittels an der gewünschten Stelle, also am Tumor. Die beigefügte Fig. 4 zeigt das Bild einer BDIX-Ratte mit Ovarialcarcinom 42 h nach Injektion, die mit ^131J-HOPAD-CMPEG, also ^131J-Hydroxyphenyl-1-aminome-than-1,1-diphosphonat-Cyanurchlorid aktiviertes Polyethylenglykol (n=ca. 100 bis 110) in einer Menge von 300 µC behandelt war. Das Bild zeigt, daß ganz unten, im Tumor ca. 30+/-2% des Mittels konzentriert sind, während in der Mitte die Leber ca. 10% zeigt und die Schilddrüse, die oberhalb der Leber sichtbar ist, weit weniger als 2% des Mittels aufgenommen hat Diese %-Angaben beziehen sich auf die Gesamtmenge an die mit radiojodmarkierten Mittel im Gesamtkörper der Ratte.

[2] = tested on: Ovarialcarcinom; assay: Whole-body distribution of radioiodine activity in tumour-bearing rat (Fig. 4, Fig. 5); format: in vivo, BDIX-Ratte
Experimental: as §1
Die beigefügte Fig. 5 zeigt die Messung einer mit ^131I-TOP-(CMPEG)4 behandelten BD IX Ratte (auch hier Ovarialcarcinom). Es zeigt sich ein ähnliches Ergebnis wie das von Fig. 4.
Von der gesamten Körperaktivität an radioaktivem Jod finden sich nach 150 h etwa 23% im Tumor, etwa 12% in der Leber, etwa 5% im Blut und etwa 3-4% jeweils in den Muskeln und in der Schilddrüse. Der Rest ist natürlich, wie auch bei der Aufnahme von Fig. 4, über den restlichen Körper verteilt.

[3] = BD IX Ratte with Ovarialcarcinom, after 150 h, % of total body activity of radioactive iodine (Fig. 5)
[4] = BDIX-Ratte with Ovarialcarcinom, 42 h after injection, 300 µC, % of total labelled agent in whole body (Fig. 4)

Substance | Konzentration des Mittels an der gewünschten Stelle, also am Tumor [1] | im Blut [2, 3] | im Tumor [2, 3] | in den Muskeln [2, 3] | in der Leber [2, 3] | in der Schilddrüse [2, 3] | Leber [2, 4] | Schilddrüse [2, 4] | im Tumor konzentriert [2, 4]
^111-In-Tetra-(hydroxyphenoxy)-phthalocyanin-(CMPEG)4 [1c] | ≥ 30% |  |  |  |  |  |  |  | 
^131I-Tetra(hydroxyphenyl)-porphin-(CMPEG)4 [1a] | ≥ 30% | ~5% | ~23% | 3-4% | ~12% | 3-4% |  |  | 
^131J-Hydroxyphenyl-1-aminome-than-1,1-diphosphonat-Cyanurchlorid aktiviertes Polyethylenglykol (n=ca. 100 bis 110) [Beispiel 2] | ≥ 30% |  |  |  |  |  | ca. 10% | < 2% | ca. 30+/-2%
